Measurements: publication PMC7806715, “Discovery of small molecules targeting the tandem tudor domain of the epigenetic factor UHRF1 using fragment-based ligand discovery” (Scientific Reports, 2021)

Molecular target: T1, FLAG-C-UHRF1 (containing SRA, RING E3 domains and PBR, aa 414–793) (UniProt Q96T88 414-793)
T1 construct: UHRF1 C-terminal fragment with the SRA domain, PBR and RING domain, aa 414–793; Cloned into the vector pMCSG7; The methods mix the names His6-C-FLAG-UHRF1, FLAG-C-UHRF1 and C-FLAG-UHRF1; also called FLAG tagged-C-UHRF1; source: Rosetta (DE3) E. coli, purified (Nuvia IMAC, TEV protease digestion to remove the His-tag, second IMAC pass)
T1 sequence (looked up): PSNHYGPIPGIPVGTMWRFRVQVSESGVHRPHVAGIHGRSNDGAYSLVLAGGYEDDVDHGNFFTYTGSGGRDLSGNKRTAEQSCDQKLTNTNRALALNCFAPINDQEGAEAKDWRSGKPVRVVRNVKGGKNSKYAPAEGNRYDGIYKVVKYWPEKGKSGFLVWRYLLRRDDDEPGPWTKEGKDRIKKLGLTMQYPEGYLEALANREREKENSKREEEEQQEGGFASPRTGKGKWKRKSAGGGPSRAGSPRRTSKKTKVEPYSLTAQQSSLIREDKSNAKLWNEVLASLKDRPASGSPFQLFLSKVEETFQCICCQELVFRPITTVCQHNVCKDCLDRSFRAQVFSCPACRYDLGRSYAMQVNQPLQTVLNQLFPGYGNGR
Assay: AlphaScreen or HTRF; AlphaScreen: 300 nM biotinylated-His-Avitag-N-UHRF1 on streptavidin donor beads, 300 nM FLAG-C-UHRF1 on anti-FLAG acceptor beads; 50 mM HEPES pH 6.5 (screen) or 50 mM sodium phosphate pH 7 (dose response), 150 mM NaCl, 0.1% Triton X-100, 1 mM DTT; room temperature; inhibition by fragments or histone peptides
Conditions: both partners purified

B1: biotinylated-His-AviTag-N-UHRF1 (containing UBL and TTD, aa 1–285) (domain or fragment, UniProt Q96T88 1-285, looked up)
chain: MWIQVRTMDGRQTHTVDSLSRLTKVEELRRKIQELFHVEPGLQRLFYRGKQMEDGHTLFDYEVRLNDTIQLLVRQSLVLPHSTKERDSELSDTDSGCCLGQSESDKSSTHGEAAAETDSRPADEDMWDETELGLYKVNEYVDARDTNMGAWFEAQVVRVTRKAPSRDEPCSSTSRPALEEDVIYHVKYDDYPENGVVQMNSRDVRARARTIIKWQDLEVGQVVMLNYNPDNPKERGFWYDAEISRKRETRTARELYANVVLGDDSLNDCRIIFVDEVFKIERPGE
modifications: biotin on the AviTag
notes: Cloned into the vector pMCSG51; also called biotinylated-AviTag-N-UHRF1
Question: Does B1 bind?
Answer: binds
